Data on 16 molecules can be found in patent US20230115257A1 (published 2023).

Usually IC50 stands for the concentration needed to halve the response being measured.

In assay [1] the target is SARS-CoV-2 (WIV02 isolate) prefusion stabilized spike trimer protein (UniProt P0DTC2 14-1213). Briefly: ELISA.
Assay [2] addresses SARS-CoV-1 spike protein (SARS-CoV-1, UniProt P59594 14-1195). Description: ELISA.

B1: 4-L4-A (antibody, V domains shown)
VH: QAYLQQSGAELVRPGASVKMSCKASGYTFTSYTVHWVKQTPRQGLEWIGGIYPGNVDTSYNQNFKGKATLTVDKSSSTAYMQLSSLTSEDSAVYFCARDGYYAMDYWGQGTSVTVSS
VL: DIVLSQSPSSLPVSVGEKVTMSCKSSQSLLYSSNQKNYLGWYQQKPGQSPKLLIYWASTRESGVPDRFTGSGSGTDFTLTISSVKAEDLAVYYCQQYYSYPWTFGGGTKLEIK
In assay [1], B1 gave an IC50 of 8.34 nM.

B2: 2-G20-A (antibody, V domains shown)
VH: EVQLQQSGPELVKPGASVKMSCKASGYTFPSYVLHWVKQKPGQGLEWIGYIYPYNDGTNYNEKFKGKATLTSDKSSSTAYMELSSLTSEDSAVYYCARGDYGDSAWFPYWGQGTLVTVSA
VL: DIVLTQSPASLAVSLGQRATISCRASKSVSTSGYSYMHWYQQKPGQPPKLLIYLASNLKSGVPARFSGGGSGTDFTLNIHPVEEEDAATYYCQLSRELPWTFGGGTKLEIK
Take B2: the figures for the half-maximal inhibitory concentration (IC50) in assay [1] and in assay [2] were 18.3 nM and 6.65 nM, respectively.

B3: 2-H7-A (antibody, V domains shown)
VH: QAYLQQSGAELVRPGASVKMSCKASGYTFTGYTMHWVKQTPRQGLEWIGAIYPENGDTSYNQKFKGKATLTVDKSSSTAYMQLSSLTSEDSAVYFCARDGYDVLYGMDYWGQGTSVTVSS
VL: DIVLTQSPASLAVSLGQRATISCRASKSVSTSGYSYMHWYQQKPGQPPKLLIYLASNLESGVPARFSGSGSGTDFTLNIHPVEEEDAATYYCQHSRELPWTFGGGTKLDIK
For the molecule B3, in assay [1], the IC50 worked out at 7.21 nM.

B4: 4-M3-A (antibody, V domains shown)
VH: EVQLQQSGPELVKPGDSVKISCKASGYSFTGYFMNWVMQSHGKSLEWIGRINPNNGETFYNQKFKGKATLTVDKSSDTAHMELRSLTSEDSAVYYCARGGTGTGWGQGTTLTVSS
VL: DILMTQSPSSMSVSLGDTVSITCHASQGISSNIGWLQQKPGKSFKGLIYYGTNLEDGVPSRFSGSGSGADYSLTISSLESEDLADYYCIQYAQFPYTFGGGTKLEIK
With B4, in assay [1], half-maximal inhibition (IC50) was put at 7.36 nM.

B5: 4-N22-A (antibody, V domains shown)
VH: QVQLQQPGTELVKPGASVKLSCKASGYTFTNYWMYWVKQRPGQGLDWIGNINPSNGGTNYNEKFKSKATLTVDKSSSTAYMQLSSLTSEDSAVYYCARETGNYWGQGTTLTVSS
VL: DILMTQSPSSMSVSLGDTVSISCHASQGISSNIGWLQQKPGKSFKGLIYHGTNLEDGVPSRFSGSGSGADYSLTISSLESEDFADYYCVQYAQFPYTFGGGTKLEIK
On to B5, for which the IC50 in assay [1] stood at 4.93 nM.

B6: 8-H5-A (antibody, V domains shown)
VH: QVTLKESGPGILQSSQTLSLTCSLSGFSLSTSGMGVSWVRQPSGKGLEWLAHIYWDDDKRYTPSLKSRLTISTDSSRKQVFLKITSVDTADTATYYCARRDLHDYDGWFAYWGQGTLVTVSA
VL: DIVMTQSQKFMSTAVGDRVSVTCKASQNVGTNVAWYQQKPGQSPKALIYSASFRYSGVPDRFSGSGSGTDFTLTISNVQSEDLAEYFCQQYNSYPLTFGSGTKLEIK
Molecule B6 showed a half-maximal inhibitory concentration (IC50) in assay [1] of 12.8 nM.

B7: 8-A17-A (antibody, V domains shown)
VH: QVQLKESGPGLVAPSQSLSITCTVSGFSLTSYAISWVRQPPGKGLEWLGVVWPGGGTNYNSALKSRLSINKDNSKSQVFLKMNSLQTDDTGRYYCARTGYHFDYWGQGTTLTVSS
VL: QIVLTQSPAIMSASPGEKVTMTCSVSSSVSYMHWYQQKSGTSPKRWIYDTSKLASGVPARFSGSGSGTSYSLTISSMEAEDAATYYCQQWSSNPPMYTFGGGTKLEIK
Molecule B7 displayed a half-maximal inhibitory concentration (IC50) in assay [2] of 5.1 nM.

B8: 1-L10-A (antibody, V domains shown)
VH: EVKLEESGGGLVQPGGSMKLSCVASGFTFNNYWMNWVRQSPEKGLEWVAQMRLKSDNYATHYAESVKGRFTISRDDSKSSVYLQMNNLRAEDTGIYYCIEGYWTYWGQGTLVTVSA
VL: QIVLTQSPAIMSASLGERVTMTCTASSSVSSSYLHWYQQKPGSSPKLWIYSTSNLASGVPARFSGNGSGTSYSLTISSMEAEDAATYYCLQYHRSPPYTFGGGTKLEIK
For the molecule B8, the results for the IC50 in assay [1] and in assay [2] were 8.65 nM and 7.5 nM, respectively.

B9: 6-O12-A (antibody, V domains shown)
VH: QVQLQQPGTELVKPGASVKLSCKASGYTFTSYWMHWVKQRPGQGLEWIGNINPSNGGTNYNEKFRSKATLTVDKSSSTAYMQLSSLTSEDSAVYYCARLGWFLPLGSWGQGTTLTVSS
VL: QIVLTQSPAIMSASLGEVITLTCSASSSVSYMHWYQQKSGTSPKLLIYSTSNLASGVPSRFSGSGSGTFYSLTISSVEAEDAADYYCHQWSGYMYTFGGGTKLEIK
Take B9: the concentration for half-maximal inhibition (IC50) was 7.62 nM in assay [1] and 5.4 nM in assay [2].

B10: 1-B11-A (antibody, V domains shown)
VH: QVQLQQSGPELVKPGASVKISCKASGYTFTDHYINWVKQRPGQGLEWIGWIFPGSGSTYYNEQFKGKATLTVDKSSNTAYMLLSSLTSEDSAVYFCARSGGLRLGFAYWGQGTLVTVSA
VL: DIQMTQTTSSLSASLGDRVTISCRASQDISNYLNWYQQKPDGTVKLLIYYTSRLHSGVPSRFSGSGSGTDYSLTISNLEQEDISTYFCQQVNTLPYTFGGGTKLEIK
In turn, B10 displayed a concentration for half-maximal inhibition (IC50) in assay [2] of 20.9 nM.

B11: 9-F6-A (antibody, V domains shown)
VH: EVQLQQSGPELVKPGASVKMSCKASGYTFTSYIMHWVKQKPGQGLEWIGYILPYNDGTKYNEKFKGKATLTSDKSSSTAYMELRSLTSEDSAVYYCARWGYSNFLDSWGQGTTLTVSS
VL: DIQMTQTTSSLSASLGDRVTISCRASQDINNYLNWYQQKPDGTVKLLIYYTSRLHSGVPSRFSGSGSGTDYSLTIRNLEQEDIATYFCQQGNTLPPTFGGGTKLEIK
For the molecule B11, the IC50 in assay [1] worked out at 16.7 nM; in assay [2], 5.55 nM.

B12: 8-L17-A (antibody, V domains shown)
VH: EVQLVESGGGLVQPKGSLKLSCAASGFTFNTYAMHWVRQAPGKGLEWVARIRSKSSNYARYYADSVKDRFTISRDDSQSMLYLQMNNLKTEDTAMYYCVRDHDYYGSSYWFAYWGQGTLVTVSA
VL: DVVMTQTPLSLPVSLGDQASISCRSSQSLVHNNGNTYLHWYLQKPGQSPKLLIYKVSNRFSGVPDRFSGSGSGTDFTLKISRVEAEDLGVYFCSQSTHVPWTFGGGTKLEIK
For the molecule B12, half-maximal inhibition in assay [1] (IC50) required 60.8 nM.

B13: 8-H3-A (antibody, V domains shown)
VH: EVQLVESGGGLVQPKGSLKLSCAASGFTFNTYAMHWVRQAPGKGLEWVARIRSKSSNYATYYADSVKDRFTISRDDSQSMLYLQMNNLKTEDTAMYYCVRDHDYYGSSYWFTYWGQGTLVTVSA
VL: DVVMTQTPLSLPVSLGDQASISCRSSQSLVHDNGNTYLHWFLQKPGQSPKLLIYKVSNRFSGVPDRFSGSGSGTDFTLKISRVETEDLGVYFCSQSTHVPWTFGGGTKLEIK
Consider B13, for which it took 19.4 nM to reach half-maximal inhibition in assay [1] (IC50).

B14: 2-P2-A (antibody, V domains shown)
VH: EVQLQQSGAELVRPGSSVKMSCKTSGYTFTSYGINWVKQRPGQGLEWIGYIYIGNGYTEYNEKFKGKATLTSDTSSSTAYMQLSSLTSEDSAIYFCARGGVDYWGQGTTLTVSS
VL: DVLMTQTPLSLPVSLGDQASISCRSSQSIVHSNGNTYLEWYLQKPGQSPKLLIYKVSNRFSGVPDRFSGSGSGTDFTLKISRVEAEDLGVYYCFQGSHVPYTFGGGTKLEIK
Take B14: in assay [2], the 50% inhibitory concentration (IC50) amounted to 17.9 nM.

B15: 3-E2-A (antibody, V domains shown)
VH: EVQLQQSGPELVKPGASVKISCKASGYTFTDYYMNWVKQSHGKSLEWIGDINPNNGGTSYTQKFKGKATLTVDKSSSKAYMELRSLTSEDSAVYYCARRGDGHYGGFTYWGQGTLVTVSA
VL: not shown
As for B15, in assay [1], 18.4 nM corresponded to half-maximal inhibition (IC50).

B16: 2-O12-A (antibody, V domains shown)
VH: EVQLQQSGPELVKPGASVKISCKASGYTFTDYYMNWVKQSHGKSLEWIGDINSNNGGTTYDQKFKGKATLTVDRSSSTAYMELRSLTSEDSAVYYCARRGDGHFGGFTYWGQGTLVTVSA
VL: not shown
As to B16, the IC50 in assay [1] was 14.9 nM.
